Publication PMC4949553
Residue numbers refer to the chain shown, from its start. Names and notes keep the numbering of the source.

B1: G392E neuroserpin (G392E NS): G392E/N321A (protein)
parent chain: MAFLGLFSLLVLQSMATGATFPEEAIADLSVNMYNRLRATGEDENILFSPLSIALAMGMMELGAQGSTQKEIRHSMGYDSLKNGEEFSFLKEFSNMVTAKESQYVMKIANSLFVQNGFHVNEEFLQMMKKYFNAAVNHVDFSQNVAVANYINKWVENNTNNLVKDLVSPRDFDAATYLALINAVYFKGNWKSQFRPENTRTFSFTKDDESEVQIPMMYQQGEFYYGEFSDGSNEAGGIYQVLEIPYEGDEISMMLVLSRQEVPLATLEPLVKAQLVEEWANSVKKQKVEVYLPRFTVEQEIDLKDVLKALGITEIFIKDANLTGLSDNKEIFLSKAIHKSFLEVNEEGSEAAAVSGMIAISRMAVLYPQVIVDHPFFFLIRNRRTGTILFMERVMHPETMNTSGHDFEEL
B2: G392E neuroserpin (G392E NS): G392E/N157A (protein)
parent chain: B1 parent chain
B3: G392E neuroserpin (G392E NS): G392E/N401A (protein)
parent chain: B1 parent chain
B4: neuroserpin (NS), wild type: N157A (protein)
parent chain: B1 parent chain with E392G
B5: neuroserpin (NS), wild type: N321A (protein)
parent chain: B1 parent chain with E392G
B6: neuroserpin (NS), wild type: N157A/N321A (protein)
parent chain: B1 parent chain with E392G

Columns and labels:
[1] = polymer sandwich ELISA of cell lysates; settings: glycan lost
[2] = non-denaturing PAGE and western blot, COS-7; settings: glycan lost
[3] = western densitometry, insoluble fraction, MG132 treatment; settings: glycan lost; control: G392E NS
[4] = western blot, soluble plus insoluble intracellular fractions; settings: glycan lost; control: G392E NS
[5] = 35S pulse-chase, total intracellular NS up to 24 h; settings: glycan lost; control: G392E NS
[6] = SDS/PAGE western blot densitometry of insoluble fraction; settings: glycan lost; control: wild type NS

Protein | oligomerisation ([1]; control: G392E NS) | oligomerisation ([2]; control: G392E NS) | other: insoluble NS accumulating under proteasome inhibition [3] | localisation_or_trafficking [4] | degradation_or_half_life [5] | oligomerisation ([1]; control: wild type NS) | oligomerisation ([2]; control: wild type NS) | other: amount in insoluble intracellular fraction [6]
B1 | increases | increases | increases | increases |  |  |  | 
B2 |  | increases |  | increases |  |  |  | 
B3 | increases | increases | increases | increases | no change |  |  | 
B4 |  |  |  |  |  | increases | increases | 
B5 |  |  |  |  |  | increases | increases | 
B6 |  |  |  |  |  | increases | increases | increases
